Measurements from US20240010735A1 (EISAI R AND D MANAGEMENT, published 2024).

Target: T1, mouse EphB2 extracellular region-Fc-His protein (mouse; human, UniProt P54763 19-543)
T1 construct: extracellular domain; not shown: Fc region of human IgG1; histidine tag
T1 sequence (looked up): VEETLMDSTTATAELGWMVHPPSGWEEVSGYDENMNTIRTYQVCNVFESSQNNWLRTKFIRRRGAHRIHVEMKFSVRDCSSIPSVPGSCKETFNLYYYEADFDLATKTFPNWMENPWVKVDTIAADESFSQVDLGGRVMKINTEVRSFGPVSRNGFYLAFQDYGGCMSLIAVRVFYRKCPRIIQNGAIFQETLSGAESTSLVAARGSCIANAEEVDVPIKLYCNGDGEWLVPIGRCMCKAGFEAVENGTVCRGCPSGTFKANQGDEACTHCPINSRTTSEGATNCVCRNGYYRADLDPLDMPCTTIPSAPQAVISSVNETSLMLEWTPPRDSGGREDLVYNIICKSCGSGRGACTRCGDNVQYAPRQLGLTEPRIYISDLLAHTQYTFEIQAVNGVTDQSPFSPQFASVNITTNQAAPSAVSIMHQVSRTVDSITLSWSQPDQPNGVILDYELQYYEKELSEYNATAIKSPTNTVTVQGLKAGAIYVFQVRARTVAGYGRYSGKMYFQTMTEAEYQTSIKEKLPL
Experiment: ELISA: Fc-His proteins (1 nM) captured on anti-6-His antibody, antibody B 10 µg/mL with human IgG 100 µg/mL, HRP anti-human kappa light chain antibody, OD450 as % of mouse EphA4-Fc-His

B1: humanized anti-EphA4 monoclonal antibody (antibody B) (antibody, human IgG2, V domains shown)
VH: QVQLVESGGGVVQPGRSLRLSCAVSGFSLTRFGVHWVRQAPGKGLEWVAVIWRGGSTDYNAAFMSRLTISKDNSKNTVYLQMNSLRAEDTAVYYCAKESLFGVYYDYGYYSMDYWGQGTTVTVSS
VL: DIQMTQSPSSLSASVGDRVTITCRASQEISGYLSWLQQKPGKAPKRLIYAASTLDSGVPSRFSGSRSGTEYTLTISSLQPEDFATYYCLQYASYPLTFGGGTKVEIKR
notes: expressed in Expi293F cells; also called humanized antibody of antibody A; HK2-42 / L1-8
B1: no binding (tested: 10 µg/mL).
